Measurements reported in the DeepSol protein solubility set.

Assay: soluble on expression in E. coli; label from the status in PepcDB or PDB records

| Sequence | soluble on expression in E. coli |
| --- | --- |
| MEKIIVRGGKQLNGSVKMEGAKNAVLPVIAATLLASKGTSVLKNVPNLSDVFTINEVLKYLNADVSFVNDEVTVDATGEITSDAPFEYVRKMRASIVVMGPLLARTGSARVALPGGCAIGSRPVDLHLKGFEAMGAVVKIENGYIEATAEKLVGAKVYLDFPSVGATQNIMMAATLAEGTTVIENVAREPEIVDLANFLNQMGARVIGAGTEVIRIEGVKELTATEHSIIPDRIEAGTFMIAAAITGGNVLIEDAVPEHISSLIAKLEEMGVQIIEEENGIRVIGPDKLKAVDVKTMPHPGFPTDMQSQMMVIQMLSEGTSIMTETVFENRFMHVEEMRRMNADMKIEGHSVIISGPAKLQGAEVAATDLRAAAALILAGLVADGYTQVTELKYLDRGYNNFHGKLQALGADVERVDDSKVDVTNLASLF | not soluble |
| MEKIKYGFGEIEAAASDIQSTSGRINSLLEDLKAHIRPMAAAWEGESAQAYNEAQQQWDSSAAELNTILSTISNTVRQGNDRMSEVNRMAAASWS | not soluble |
| MEKKIGFIGCGNMGKAILGGLIASGQVLPGQIWVYTPSPDKVAALHDQYGINAAQSAQEVAQVADIVFGAVKPGIMVKVLSEISSSLNKDSLVVSIAAGVTLDQLARALGHDRKIIRAMPNTPSLVNAGMTSVTPNALVTPEDTADVLNIFRCFGGAEVIAEPMIHPVVGVSGSSPAYVFMFIEAMADAAVLGGMPRAQAYKFAAQAVMGSAKMVLETGKHPGELKDMVCSPGGTTIEAVRVLEERGFRAAVIEAMTKCMEKSEALSKSLEHHHHHH | soluble |
| MEKKITGYTTVDISQWHRKEHFEAFQSVAQCTYNQTVQLDITAFLKTVKKNKHKFYPAFIHILARLMNAHPEFRMAMKDGELVIWDSVHPCYTVFHEQTETFSSLWSEYHDDFRQFLHIYSQDVACYGENLAYFPKGFIENMFFVSANPWVSFTSFDLNVANMDNFFAPVFTMGKYYTQGDKVLMPLAIQVHHAVCDGFHVGRMLNELQQYCDEWQGGA | soluble |
| MEKKVGTDRVKRGMAQMQKGGVIMDVVNAEQAKIAEEAGAVAVMALERVPSDIRAAGGVARMADPRIVEEVMNAVSIPVMAKARIGHITEARVLEAMGVDYIDESEVLTPADDEFHLLKSDFTVPFVCGCRDIGEALRRIGEGAAMLRTKGEPGTGNIVEAVRHMRQVNGQIRQIASMTDDELMVAAKNFGAPYELVKEIKTLGKLPVVNFAAGGVATPADAALMMELGADGVFVGSGIFKSDNPAKFASAIVQATTYYTDYE | not soluble |
| MEKKVLLTGFDPFGGETVNPSWEAVKRLNGAAEGPASIVSEQVPTVFYKSLAVLREAIKKHQPDIIICVGQAGGRMQITPERVAINLNEARIPDNEGNQPVGEDISQGGPAAYWTGLPIKRIVEEIKKEGIPAAVSYTAGTFVCNHLFYGLMDEISRHHPHIRGGFIHIPYIPEQTLQKSAPSLSLDHITKALKIAAVTAAVHEDDIETGGGELH | soluble |
| MEKLENFWTRDELNTFFDYVTPERDVEQFTMFRVLAYSGIRKGELLALTWKDINFEDNTLRVNKTLTQGLGGKLIVQPPKSRAGRRTIDLDDSTMRYLRQWKGVQRETFLGMGFNTNNVDQLVFASNRNHFRSMNTPTKWLNKAIKATGLKHISIHGFRHTHASLLYQSGVGLKETQQRLGHSRADSSVTLDVYTHTTEQQNVAALQRFENYVEAKLEHHHHHH | not soluble |
| MEKNKLRKVGLTALEWLKQHPEIKQHKESSLYEQLFASQQWQQAQTIGMIRSLPLELSTQPIFERAMQESKQVAVPRTFKGGKMHFYQVFPETVYDTSAFGVEEPPLTAAEITATAIDLLIVPGIVFNRAGYRIGFGGGFYDRYLEHFSGHSCSLVFSEQLHEQWQPEAFDQPIEQLFIQLEHHHHHH | not soluble |
| MEKPHVVSLIGGFGYREPIFRKVLTTAMLDPGINYTLISGPSLDPSKLGGVPKNVRILNFVEDTYPYIKSSDAVIAPGGHSTIMEALSFGVPILSFPDEGHSEQESNAAVVEEEGYGRMLSYSTPPEVILECIREVIEDEAYRNKVERLQRLSGELEHHHHHH | not soluble |
| MEKSAGRGRPSVSVERIVATALEAVDEVGAQAFNMRMLAERLGSGTATLYRHFASKDEILIYVVDSVLGELLADQPEAVELVPQGQGSEGYSWQKACASGAERLYGVLRRHPGILPLLVSQIPIGPNGLKRREQGIALFLANGFPAELAARAYTSVAHYVLGFAIQQHSSASSEAAEGEELVEFFAALDASEYPAIATAGRHLPGISVEEEFRFGLKLIIDGLELAASAWRKADGC | not soluble |
| MEKTTEGAFYTREYRNLFKEFGYSEAEIQERVKDTWEQLFGDNPETKIYYEVGDDLGYLLDTGNLDVRTAGMSYGMMMAVQMDRKDIFDRIWNWTMKNMYMTEGVHAGYFAWSCQPDGTKNSWGPAPDGEEYFALALFFASHRWGDGDEQPFNYSEQARKLLHTCVHNGEGGPGHPMWNRDNKLIKFIPEVEFSDPSYHLPHFYELFSLWANEEDRVFWKEAAEASREYLKIACHPETGLAPEYAYYDGTPNDEKGYGHFFSDSYRVAANIGLDAEWFGGSEWSAEEINKIQAFFADKEPEDYRRYKIDGEPFEEKSLHPVGLIATNAMGSLASVDGPYAKANVDLFWNTPVRTGNRRYYDNCLYLFAMLALSGNFKIWFPEGQEEEHLEHHHHHH | soluble |
| MEKVNEILSQLTLEEKVKLVVGVGLPGLFGNPHSRVAGAAGETHPVPRVGLPAFVLADGPAGLRINPTRENDENTYYTTAFPVEIMLASTWNRELLEEVGKAMGEEVREYGVDVLLAPAMNIHRNPLCGRNFEYYSEDPVLSGEMASSFVKGVQSQGVGACIKHFVANNQETNRMVVDTIVSERALREIYLRGFEIAVKKSKPWSVMSAYNKLNGKYCSQNEWLLKKVLREEWGFEGFVMSDWYAGDNPVEQLKAGNDLIMPGKAYQVNTERRDEIEEIMEALKEGKLSEEVLDECVRNILKVLVNAPSFKNYRYSNKPDLEKHAKVAYEAGAEGVVLLRNEEALPLSENSKIALFGTGQIETIKGGTGSGDTHPRYAISILEGIKERGLNFDEELAKTYEDYIKKMRETEEYKPRRDSWGTIIKPKLPENFLSEKEIHKLAKKNDVAVIVISRISGEGYDRKPVKGDFYLSDDETDLIKTVSREFHEQGKKVIVLLNIGSPVEVVSWRDLVDGILLVWQAGQETGRIVADVLTGRINPSGKLPTTFPRDYSDVPSWTFPGEPKDNPQKVVYEEDIYVGYRYYDTFGVEPAYEFGYGLSYTTFEYSDLNVSFDGETLRVQYRIENTGGRAGKEVSQVYIKAPKGKIDKPFQELKAFHKTRLLNPGESEEVVLEIPVRDLASFNGEEWVVEAGEYEVRVGASSRNIKLKGTFSVGEERRFKP | soluble |
| MEKYEELFARIKEKAKLIDEKIFELIPEKDPRVLYEAARHYPLAGGKRVRPFVVLTSTEAVGGDPLRAIYPAVAIELIHNYSLVHDDIMDMDETRRGKPTVHRIWGVNMAILAGDLLFSKAFEAVARAEIPPEKKARVLEVIVKASNELCEGQARDLEFEKKSTVTIEEYMEMISGKTGALFEASAKVGGIIGTDNEEYIKALSSWGRNVGIAFQIWDDVLDLIADEKKLGKPVGSDIRKGKKTLIVAHFFENADEKDKQRFLKIFGKYAGDVKGRGIIEEDIKSDVMEAIDLLKKYGSIDYAAEIAKDMIKKANEALRILPKSKARMDLELLAKFIVEREY | soluble |
| MELKKRSEFPENELWDLTALYKDRQDFLLAIEKALQDIDLFKRNYEGRLTSVDDFTQALIEIEHIYIQMSHIGTYAFMPQTTDFSDESFAQIAQAGDDFMTKASVALSFFDTALANADLDVLDTLEKNPYFSAAIRMAKIQKEHLLSPDVEKALANLREVINAPYDIYTKMRAGDFDMDDFEVDGKTYKNSFVSYENFYQNHENAEIREKAFRSFSKGLRKHQNTAAAAYLAKVKSEKLLADMKGYASVFDYLLAEQEVDRSLFDRQIDLIMTEFGPVAQKFLKHVAQVNGLEKMTFADWKLDIDNDLNPEVSIDGAYDLVMKSLAPLGQEYTKEIERYQTERWVDFAANANKDSGGYAADPYKVHPYVLMSWTGRMSDVYTLIHEIGHSGQFIFSDNHQSYFNTHMSTYYVEAPSTFNELMLSDYLEHQFDDPRQKRFALAHRLTDTYFHNFITHLLEAAFQRKVYTLIEEGGTFGADQLNAMMKEVLTDFWGDAVDIDDDAALTWMRQAHYYMGLYSYTYSAGLVISTAGYLNLKHNPNGAKEWLDFLKSGGSRTPLDTAMLIGADIATEKPLRDTIQFLSDTVDQIISYTEDMSHA | soluble |
| MELKPTAPPIFTGRPFVVAWDVPTQDCGPRLKVPLDLNAFDVQASPNEGFVNQNITIFYRDRLGLYPRFDSAGRSVHGGVPQNVSLWAHRKMLQKRVEHYIRTQESAGLAVIDWEDWRPVWVRNWQDKDVYRRLSRQLVASRHPDWPPDRIVKQAQYEFEFAAQQFMLETLRYVKAVRPRHLWGFYLFPDCYNHDYVQNWESYTGRCPDVEVARNDQLAWLWAESTALFPSVYLDETLASSRHGRNFVSFRVQEALRVARTHHANHALPVYVFTRPTYSRRLTGLSEMDLISTIGESAALGAAGVILWGDAGYTTSTETCQYLKDYLTRLLVPYVVNVSWATQYCSRAQCHGHGRCVRRNPSASTFLHLSTNSFRLVPGHAPGEPQLRPVGELSWADIDHLQTHFRCQCYLGWSGEQCQWDHRQAAGGASEAWAGSHLTSLLALAALAFTWTL | not soluble |
| MELLRPEATVLSLGRRVLSFDREGRPYHYFREGKTYKRALDGSLHLRYREGERRRRRLAPEEALGVYQEVLDLAEAHLRDERRREEVLRWTPEGLLDPTPYRRAYAWPVSILPPDAYLSVVLQATTGCTWNRCAFCSFYQDRPFQKRTPEAFREHIQAVLALLGRGRLLRRGVFLADGNALALSEPLLPLLELVRAHFPGEPVMGFLDLFTGLKKAPSWWERLGGMGLRRVYIGLETGHAPLLALLRKPGHPKEVLPLVRALKSSGLSVGVILMVGSGGKAFAEAHFRESLALLAELPLGRGDVVYLSPFREDPGTPYAALGLAPLEDLEGELQRWAQAVRRLGLRASRYEIRE | soluble |
| MELTAVPATQFSSVQLTDILNACFEAYLVPVTQSVEGFVQRFSAEGMSLVDSRVWLAGDEPAAIAIVARRGSAARLAAFALRPAWRGKGLGRKLMQELLMLLQQQGIETVYLEVIRDNHAAVALYQSLGFTRRYGLCGYLSTELLAPVPGVLQLYPTLSLLRRAIEESNSQLPWLLDPLTFATLPCQVVTLEQRAFAVLTTAGSRPVLSFLWVEPAARRQGLARELLMALAQQFPGIGTSVTVPETFTPLFAAAGYTPLSLQQYEMTMDLADAKSA | not soluble |
| MELTLHEARVIGCLLEKEVTTPEQYPLSLNALTLACNQKTSREPVLELTEAQVQDALDSLNKKRLISEQSGFGSRVVKYKHRFCNTEFSELQLSTAAVAIVCLLLLRGPQTPGELRTRSNRLHDFKDVLEVEACIKQLMERDKPVLTQLPREPGKRECRYTELFSQGSEQVSATSLSADSPSADSNSLNAQDRQQLEARVTQLEGQVAELKDKLESLIASLS | soluble |
| MELVATQDGFVGEMARGFTFQALGEVAAGFGKRLQAEGIPRVVVGHDARFLAREMAEHAAGVLGGLGLEVHLLQGPAPLPLFGFALRAKEAAGLYLTGSRRPFAFQGVKLRLGPGRPLPREGGGPRTPPSPGPFAPLEARRDYLDHLRKSAQGLALKRGVVYLDAMGGAGGGILGQVLKRLEAPVELRELHPLPHPLFYGVAPDPRPEHLRTLRLLLREAKPPALGLALDGDADRLGVYLPGGEALPGDQALARLREAAQGREVEALGEGAYRFPWHLEEPDPFLAALLLMGVLL | soluble |
